The values that follow come from paper PMC10916433 (2023).

B1: GFP‐tagged wild‐type RAGE (AAV‐RAGE‐Wt) [mouse] / receptor‐interacting serine/threonine protein kinase 1 (RIPK1), endogenous [mouse (endogenous in BV2 cells and in mouse hippocampus)] (parent complex)
chain 1: GQNITARIGEPLVLSCKGAPKKPPQQLEWKLNTGRTEAWKVLSPQGGPWDSVARILPNGSLLLPATGIVDEGTFRCRATNRRGKEVKSNYRVRVYQIPGKPEIVDPASELTASVPNKVGTCVSEGSYPAGTLSWHLDGKLLIPDGKETLVKEETRRHPETGLFTLRSELTVIPTQGGTHPTFSCSFSLGLPRRRPLNTAPIQLRVREPGPPEGIQLLVEPEGGIVAPGGTVTLTCAISAQPPPQVHWIKDGAPLPLAPSPVLLLPEVGHEDEGTYSCVATHPSHGPQESPPVSIRVTETGDEGPAEGSVGESGLGTLALALGILGGLGVVALLVGAILWRKRQPRREERKAPESQEDEEERAELNQSEEAEMPENGAGGP
chain 2: MQPDMSLDNIKMASSDLLEKTDLDSGGFGKVSLCYHRSHGFVILKKVYTGPNRAEYNEVLLEEGKMMHRLRHSRVVKLLGIIIEEGNYSLVMEYMEKGNLMHVLKTQIDVPLSLKGRIIVEAIEGMCYLHDKGVIHKDLKPENILVDRDFHIKIADLGVASFKTWSKLTKEKDNKQKEVSSTTKKNNGGTLYYMAPEHLNDINAKPTEKSDVYSFGIVLWAIFAKKEPYENVICTEQFVICIKSGNRPNVEEILEYCPREIISLMERCWQAIPEDRPTFLGIEEEFRPFYLSHFEEYVEEDVASLKKEYPDQSPVLQRMFSLQHDCVPLPPSRSNSEQPGSLHSSQGLQMGPVEESWFSSSPEYPQDENDRSVQAKLQEEASYHAFGIFAEKQTKPQPRQNEAYNREEERKRRVSHDPFAQQRARENIKSAGARGHSDPSTTSRGIAVQQLSWPATQTVWNNGLYNQHGFGTTGTGVWYPPNLSQMYSTYKTPVPETNIPGSTPTMPYFSGPVADDLIKYTIFNSSGIQIGNHNYMDVGLNSQPPNNTCKEESTSRHQAIFDNTTSLTDEHLNPIRENLGRQWKNCARKLGFTESQIDEIDHDYERDGLKEKVYQMLQKWLMREGTKGATVGKLAQALHQCCRIDLLNHLIRASQS

Variants of B1 are the subject of one test. As to the kind of experiment: co-immunoprecipitation (IP: RIPK1, IB: RAGE), optical density of blot; hippocampus of db/db + RAGE-KD mice injected with AAV-RAGE-Wt or AAV-RAGE-Mut; n = 4; mean ± S.D; parent: 1.9; read off a plot.
Turning to chain 1 GQNITARIGEPLVLSCKGAPKKPPQQLEWKLNTGRTEAWKVLSPQGGPWDSVARILPNGSLLLPATGIVDEGTFRCRATNRRGKEVKSNYRVRVYQIPGKPEIVDPASELTASVPNKVGTCVSEGSYPAGTLSWHLDGKLLIPDGKETLVKEETRRHPETGLFTLRSELTVIPTQGGTHPTFSCSFSLGLPRRRPLNTAPIQLRVREPGPPEGIQLLVEPEGGIVAPGGTVTLTCAISAQPPPQVHWIKDGAPLPLAPSPVLLLPEVGHEDEGTYSCVATHPSHGPQESPPVSIRVTETGDEGPAEGSVGESGLGTLALALGILGGLGVVALLVGAILWAAAAAAREERKAPESQEDEEERAELNQSEEAEMPENGAGGP [chain 1 R340A, chain 1 K341A, chain 1 R342A, chain 1 Q343A, chain 1 P344A, chain 1 R345A], the response is ~1 fold change to the db/db + RAGE-KD group.

Variants of B1 are the subject of the next test. As to the kind of experiment: co-immunoprecipitation (IP: RAGE, IB: RIPK1), optical density of blot; hippocampus of db/db + RAGE-KD mice injected with AAV-RAGE-Wt or AAV-RAGE-Mut; n = 4; mean ± S.D; parent: 2.7; read off a plot.
For the variant chain 1 GQNITARIGEPLVLSCKGAPKKPPQQLEWKLNTGRTEAWKVLSPQGGPWDSVARILPNGSLLLPATGIVDEGTFRCRATNRRGKEVKSNYRVRVYQIPGKPEIVDPASELTASVPNKVGTCVSEGSYPAGTLSWHLDGKLLIPDGKETLVKEETRRHPETGLFTLRSELTVIPTQGGTHPTFSCSFSLGLPRRRPLNTAPIQLRVREPGPPEGIQLLVEPEGGIVAPGGTVTLTCAISAQPPPQVHWIKDGAPLPLAPSPVLLLPEVGHEDEGTYSCVATHPSHGPQESPPVSIRVTETGDEGPAEGSVGESGLGTLALALGILGGLGVVALLVGAILWAAAAAAREERKAPESQEDEEERAELNQSEEAEMPENGAGGP [chain 1 R340A, chain 1 K341A, chain 1 R342A, chain 1 Q343A, chain 1 P344A, chain 1 R345A], the response is ~0.95 fold change to the db/db + RAGE-KD group.
